Legend:
[1] = system: HIV-1JR-FL chronically infected cells (PM1/JR-FL); experiment: FACS binding to functional envelope on infected cell surface; details: for reactivity in the absence of sCD4: absence of sCD4, FIG. 2
Experimental: It has been known that HIV-1 has a functional envelope causing membrane fusion with target cells on viral particles and on the surfaces of chronically infected cells. In order to study whether or not the produced antibody is able to recognize this functional envelope, the binding activity of the antibody to the cell surface of HIV-1JR-FL chronically infected cells (PM1/JR-FL) was examined with a flow cytometer. […] PM1/JR-FL cells (2×10^5) were placed in a test tube. Thereafter, 50 μl of sCD4 that had been diluted with a FACS buffer (2% BSA, 0.02% Azide in PBS; pH 7.23) and adjusted to a concentration of 1 μg/ml, or 50 μl of only the FACS buffer, was added to the test tube. The mixture was reacted for 15 minute. Thereafter, 50 μl of monoclonal antibody diluted with a FACS buffer to a concentration of 1 to 3 μg/ml was then added to the reaction mixture, and the obtained mixture was reacted at room temperature for 45 minutes. The resultant was washed with a FACS buffer two times, and 50 μl of FITC-bound anti-human IgG antibody (Sigma) diluted with a FACS buffer at a ratio of 1:200 was then added to the resultant. The mixture was incubated at 4° C. in a dark place for 30 minutes. Thereafter, the resultant was washed with a FACS buffer two times, and it was then fixed with 0.5 ml of fixing solution {2% (w/v) paraformaldehyde in PBS}. The fixed sample was analyzed with FACSCalibur (Beckton-Dickinson). The incorporated data was analyzed with Cell Quest (Beckton-Dickinson). […] Differing from the reaction with the gp120 monomer, in the case of a functional envelope consisting of a trimer, the binding inhibition of CD4bs antibodies by sCD4 was not observed. On the other hand, with regard to CD4i antibodies, the 4 types of antibodies all had only weak reactivity in the absence of sCD4, but in the presence of sCD4, such reactivity was increased up to the level equivalent to the reactivity of a V3 antibody.

[2] = system: strain JR-FL; experiment: Single-round neutralization of pseudotyped virus, JR-FL; assay type: cell-based, HIV-1; details: 10 μg/ml and 2 μg/ml, FIG. 3
Excerpt: (§1) With regard to 20 types of antibodies, their binding activity to the cell surface, the amount of antibody produced, and the like were taken into consideration. As a result, regarding 15 types of antibodies, the number of cells was increased, a culture supernatant was collected and was then filtrated, and a monoclonal antibody was then purified using a protein A column or protein G column (GE Healthcare). The neutralizing activity of the thus purified monoclonal antibody on pseudotyped HIV-1 viruses was examined at an antibody concentrations of 10 μg/ml and 2 μg/ml, using the envelopes of 4 types of HIV-1 strains commonly used in laboratories (FIG. 3). In order to produce such pseudotyped virus, on the day before transfection, 293T cells were dispersed on a 100-mm collagen-coated plate (IWAKI) to a cell concentration of 4×10^6, and they were then cultured at 37° C. overnight. […] Ten seconds after the addition of the luciferase substrate, fluorescence intensity was measured with a TR477 microplate luminometer (Applied Biosystems) (in the case of GHOST-hi5). […] Thereafter, β-galactosidase activity was measured with the TR477 microplate luminometer. […]

[3] = system: HIV-1 of subtype B (Western type); experiment: MTT assay neutralization, 17 types of viral strains overall; assay type: cell-based; details: summary of Table 2
Experimental: Neutralizing activity on 17 types of viral strains including clinically isolated strains was studied (Table 2). For this neutralization experiment, the following MMT assay was applied. As a method, 2×10^3 PM1/CCR5 cells were infected with 100 TCID50 virus in the presence of the antibody in each concentration on a 96-well round-bottom micro culture plate, and the cells were then cultured at 37° C. for 7 days. Thereafter, 100 μl of a culture solution was removed from each well, and 10 μl of an MTT (3-[4,5-dimethylthiazol-2-yl]-2,5-diphenyltetrazolium bromide) solution dissolved in a phosphate-buffered saline (PBS) (7.5 mg/ml) was then added thereto. The obtained mixture was incubated at 37° C. for 3 hours. Thereafter, 100 μl of acidified isopropanol containing 4% Triton X-100 (vol/vol) was added to each well, so as to release formazan crystal. The absorbance (570 nm) was measured with a microplate reader, and the cell survival rate was calculated. This experiment was repeated 2 or 3 times. The antibody concentration necessary for inhibiting 50% virus infection (IC50) was calculated, and the antibody concentration corresponding to such IC50 was indicated with color-coding.
It should be noted that strains, which were not neutralized by the anti-V3 antibody, 0.5γ(1C10), were neutralized by the CD4bs antibodies, 0.5δ(3D6) and 49G2. That is to say, a complementary neutralization was observed.

[4] = system: strain 89.6; experiment: Single-round neutralization of pseudotyped virus, 89.6; assay type: cell-based, HIV-1; details: 10 μg/ml and 2 μg/ml, FIG. 3
Excerpt: as §1

[5] = system: JR-FL strain; experiment: MTT assay of combined use on JR-FL strain; assay type: cell-based; details: combined use with CCR5 inhibitor (maraviroc, MVC); HIV-1JRFL; FIG. 12
Experimental: By combining 0.5δ and 0.5γ in various concentrations, their neutralizing activity on a JR-FL strain was analyzed by an MTT assay. […] In order to analyze such synergistic effect, the analysis method of Chow/Talaley et al. and the 3-dimensional analysis method were applied. […]

[6] = system: pseudotyped HIV-1 viruses (envelopes of 4 types of HIV-1 strains); experiment: Single-round neutralization of pseudotyped viruses, 4 strains overall; assay type: cell-based; details: 4 types of envelope pseudotyped viruses overall; FIG. 3
Excerpt: as §1, with “overnight. Thereafter, 5 μg of pNL4-3-Luc-E^−R^− or 5 μg of pSG3ΔEnv (Li M. et. al, J. Virol. 79, pp. 10108-10125, 2005), 4.5 μg of an envelope expression vector, and 0.5 μg of a pRSV-REV vector were introduced into the culture using Effectene (QIAGEN), and the obtained mixture was then cultured at 37° C. in 5% CO2. Twenty-four hours after initiation of the culture, a supernatant was recovered and was then pass through a 0.2-μm filter. Thereafter, it was then dispensed and was then conserved at −80° C. The obtained pseudotyped virus was subjected to a p24 Antigen ELISA kit (ZeptoMetrix Co.) to measure the amount of p24 antigen. A single-round neutralization experiment using the pseudotyped virus was carried out as follows. On the day before the experiment, GHOST-hi5 cells or TZM-bl cells were dispersed on a 96-well flat bottom culture plate (Falcon) at a concentration of 2×10^4 cells/200 μl.” for “overnight.”

[7] = system: Standard Virus Panels B; SVPB (12 types of pseudotyped viruses); experiment: Breadth of neutralization on Standard Virus Panels B; assay type: cell-based, HIV-1
Experimental: The neutralizing activity of the thus purified monoclonal antibody on pseudotyped HIV-1 viruses was examined at an antibody concentrations of 10 μg/ml and 2 μg/ml, using the envelopes of 4 types of HIV-1 strains commonly used in laboratories (FIG. 3). In order to produce such pseudotyped virus, on the day before transfection, 293T cells were dispersed on a 100-mm collagen-coated plate (IWAKI) to a cell concentration of 4×10^6, and they were then cultured at 37° C. overnight. Thereafter, 5 μg of pNL4-3-Luc-E^−R^− or 5 μg of pSG3ΔEnv (Li M. et. al, J. Virol. 79, pp. 10108-10125, 2005), 4.5 μg of an envelope expression vector, and 0.5 μg of a pRSV-REV vector were introduced into the culture using Effectene (QIAGEN), and the obtained mixture was then cultured at 37° C. in 5% CO2. […] Ten seconds after the addition of the luciferase substrate, fluorescence intensity was measured with a TR477 microplate luminometer (Applied Biosystems) (in the case of GHOST-hi5). […] Thereafter, β-galactosidase activity was measured with the TR477 microplate luminometer. Neutralizing activity was calculated in accordance with the expression {1−(t−c)/(n−c)}×100 (t: the fluorescence intensity of a sample; c: the background fluorescence intensity of only cells; n: the fluorescence intensity of a sample with no antibodies). […]

[8] = biological target: T1, gp120 (Human immunodeficiency virus type 1 group M subtype B, UniProt P03378); details: 0.5δ(3D6) 5 μg/ml for 15 minutes versus control antibody 8D11; FIG. 4
T1 sequence (P03378 32-509): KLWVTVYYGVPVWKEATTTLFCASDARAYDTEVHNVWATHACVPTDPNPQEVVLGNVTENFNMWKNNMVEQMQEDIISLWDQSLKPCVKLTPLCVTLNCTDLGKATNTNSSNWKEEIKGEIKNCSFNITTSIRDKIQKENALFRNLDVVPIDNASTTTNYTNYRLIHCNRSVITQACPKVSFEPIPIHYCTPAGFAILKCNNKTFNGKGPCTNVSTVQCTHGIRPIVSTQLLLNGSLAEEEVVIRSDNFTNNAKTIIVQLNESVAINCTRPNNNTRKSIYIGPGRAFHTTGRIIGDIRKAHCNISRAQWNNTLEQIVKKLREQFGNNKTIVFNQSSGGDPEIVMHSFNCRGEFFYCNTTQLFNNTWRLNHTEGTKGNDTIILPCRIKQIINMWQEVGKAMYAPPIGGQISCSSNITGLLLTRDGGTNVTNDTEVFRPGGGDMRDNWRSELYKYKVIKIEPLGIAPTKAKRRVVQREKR
Experimental: Thereafter, a supernatant was removed, and 175 μl of a blocking buffer (2% bovine serum albumin; BSA, 0.1% Azide, PBS, pH 7.2) was added to the residue. The obtained mixture was left at rest at room temperature for 30 minutes. Thereafter, the well was washed with an ELISA wash buffer (0.15% Tween20, PBS, pH 7.2) three times, and 50 μl each of monomeric gp120 (gp120-SF2; Austral Biologicals, San Ramon, Calif.) was then added thereto. The obtained mixture was left at rest at room temperature for 2 hours. Thereafter, the resultant was washed with the ELISA wash buffer three times, so as to produce a “gp120-captured plate.” A culture supernatant of B cells was added to this plate, and the mixture was then reacted at room temperature for 2 hours. The resultant was washed with the ELISA wash buffer three times, and 100 μl of anti-human IgG-ALP, which had been diluted by a factor of 1000 with the ELISA buffer, was then added to the resultant. The obtained mixture was left at rest at room temperature for 1 hour. The resultant was washed with the ELISA wash buffer three times. Phosphatase substrate (SIGMA) was dissolved in a substrate buffer (Diethanol amine buffer; pH 9.85), and 100 μl of the obtained solution was then added to each well, followed by leaving the mixture at rest at room temperature for 10 to 30 minutes. Thereafter, the absorbance (405 nm) was measured with a microplate reader. […]

[9] = system: SVPC13; experiment: Neutralization of subtype C virus panel, SVPC13; assay type: cell-based, HIV-1; details: compared with a control antibody, FIG. 11
Excerpt: (§2) As with the panels of subtype (clade) B viruses (SVPB), the panels of subtype C viruses have also been supplied. […] Thus, it is considered that they are important for the studies of cross-clade neutralization by antibodies.

[10] = biological target: T1, gp120; details: epitope on gp120: V3L, CD4bs, CD4i
Experimental: Antibodies reacting with gp120 are classified into the following 4 types, depending on the types of reactive epitopes. Specifically, the 4 types are a CD4-binding site (CD4bs), a CD4-induced epitope (CD4i), a third variable loop (V3loop; V3L), and those that cannot be classified into the aforementioned groups (other epitopes). Whether or not an antibody binds to V3L is determined by ELISA using a synthetic peptide having the amino acid sequence of V3L (V3-peptide ELISA). […] On the day before the experiment, 100 μl of a peptide (NNT20) diluted in PBS at a concentration of 5 μg/ml was added to each well of a 96-well polypropyren plate, and it was then left at 4° C. overnight. After washing, 175 μl of a blocking buffer was added to each well, and was incubated at room temperature for 30 minutes. The plate was washed with an ELISA wash buffer three times, and a B cell culture supernatant diluted serially was then added to the wells. The plate was reacted at room temperature for 2 hours. […] After washing the resultant, color was developed using ALP-Substrate, and the absorbance (405 nm) was then measured. […]
On the other hand, soluble CD4 (sCD4; R&D Systems, Inc. Minneapolis, Minn.) exerts completely opposite influences on a CD4bs antibody and a CD4i antibody. […] After washing them, color was developed using ALP-Substrate, and the absorbance (405 nm) was then measured.

[11] = system: 93TH976.17; experiment: Neutralization of subtype AE virus 93TH976.17; assay type: cell-based, HIV-1; details: 93TH976.17, subtype AE; FIG. 11
Excerpt: as §2

[12] = biological target: monomeric gp120 (gp120-SF2) (Human immunodeficiency virus type 1 group M subtype B, UniProt P03378); details: presence or absence of 0.5 μg/ml sCD4; FIG. 1
Chain of monomeric gp120 (gp120-SF2) (P03378 32-509): as above
Experimental: The “gp120-capture ELISA” was applied to screen for the antibody-producing cells having an anti-gp120 activity (J. P. Moore et al., J. Virol. 67, pp. 6136-6151, 1993). […] Thereafter, a supernatant was removed, and 175 μl of a blocking buffer (2% bovine serum albumin; BSA, 0.1% Azide, PBS, pH 7.2) was added to the residue. The obtained mixture was left at rest at room temperature for 30 minutes. Thereafter, the well was washed with an ELISA wash buffer (0.15% Tween20, PBS, pH 7.2) three times, and 50 μl each of monomeric gp120 (gp120-SF2; Austral Biologicals, San Ramon, Calif.) was then added thereto. The obtained mixture was left at rest at room temperature for 2 hours. Thereafter, the resultant was washed with the ELISA wash buffer three times, so as to produce a “gp120-captured plate.” A culture supernatant of B cells was added to this plate, and the mixture was then reacted at room temperature for 2 hours. The resultant was washed with the ELISA wash buffer three times, and 100 μl of anti-human IgG-ALP, which had been diluted by a factor of 1000 with the ELISA buffer, was then added to the resultant. […] Thereafter, the absorbance (405 nm) was measured with a microplate reader.
Utilizing this property, monoclonal antibodies were classified. […] After washing them, color was developed using ALP-Substrate, and the absorbance (405 nm) was then measured.

[13] = system: SVPC15; experiment: Neutralization of subtype C virus panel, SVPC15; assay type: cell-based, HIV-1; details: compared with a control antibody, FIG. 11
Excerpt: as §2

[14] = system: 93TH966.8; experiment: Neutralization of subtype AE virus 93TH966.8; assay type: cell-based, HIV-1; details: 93TH966.8, subtype AE; FIG. 11
Excerpt: as §2

B1: 5G2: IgG1 κ monoclonal antibody to gp120 V3 loop; VH SEQ ID NO: 3, VL SEQ ID NO: 4; FERM BP-11021 (antibody, listed as Homo sapiens, V domains shown)
VH: EVQLVESGGGVVRPGNSLRLSCAASGIIFSTANLHWLRHVPGKGLEWVAIISYDGHRQYYADLVKGRFTISRDNSKNTLHLQMDGLTSDDTAVYYCAKDGADENNLGPAFDYWGRGTLVTVSS
VL: EIVLTQSPATLSVSPGEGATLSCRASQSISSNLAWYQQKPGQAPRLLIYGASTGATGIPARFSGSGSGTDFTLTISRLEPEDFAIYYCQQYGSLPITFGQGTRLEIKR
notes: IgG1 κ monoclonal antibody to gp120 V3 loop; FERM BP-11021
Q: B1 was tested. Which “reactivity in the absence of sCD4” value [1] did it give?
A: Its value is “strong reactivity”.

Q: And the neutralizing activity [2]?
A: The neutralizing activity was “exhibited a neutralizing activity”.

Q: And the “neutralizing activity on various HIV-1 strains, overall” value [3]?
A: Its value is “equivalent to that of a KD-247 antibody”.

Q: What about the neutralizing activity [4] of the same molecule?
A: Its neutralizing activity is “exhibited a neutralizing activity”.

Q: And the “combination effect on neutralizing activity” value [5]?
A: Its value is “synergistic inhibitory effect”.

Q: What about the neutralizing activity [6] of the same molecule?
A: Its neutralizing activity is “strong neutralizing activity”.

B2: 0.5γ(1C10): human IgG1 κ monoclonal antibody to gp120 V3 loop; VH SEQ ID NO: 1, VL SEQ ID NO: 2; FERM BP-11060 (antibody, listed as Homo sapiens, V domains shown)
VH: EVQLVESGGGLIQPGGSLRLSCAASGFTVSSSSMSWVRQAPEKGLEWVSVVYSGGNTYNADSVKGRFSISRDNSKNTVYLQMNSLRADDTAVYYCARDLGGGDRSSDYWGQGTLVTVSS
VL: DIQLTQSPSSLSASVGDRVTITCRASESINTYLNWYQQRPGKAPKLLIYAASTLQTGVPSRFSGSGSGTLFTLTISSLQPEDLATYYCQQSFSTLPYTLGRGTKVEIKG
notes: human IgG1 κ monoclonal antibody to gp120 V3 loop; FERM BP-11060
Q: For B2, which “reactivity in the absence of sCD4” value [1] is on record?
A: The value was “strong reactivity”.

Q: And the neutralizing activity [2]?
A: The neutralizing activity was “exhibited a neutralizing activity”.

Q: What about the “viruses whose growth was suppressed 50% or more” value ([7]; at a concentration of 50 μg/ml) of the same molecule?
A: The value was 7/12.

Q: And the “viruses whose growth was suppressed 50% or more” value ([7]; at a concentration of 150 μg/ml)?
A: Its value is 10/12.

Q: What about the “neutralizing activity on various HIV-1 strains, overall” value [3] of the same molecule?
A: The value was “wide range of strong neutralizing activity”.

Q: And the neutralizing activity [4]?
A: Its neutralizing activity is “exhibited a neutralizing activity”.

Q: What about the “combination effect on neutralizing activity” value [5] of the same molecule?
A: The value was “synergistic inhibitory effect”.

Q: And the “reactivity of biotinylated antibody with gp120 in the presence of 0.5δ” value [8]?
A: The value was “significantly enhanced”.

Q: What about the neutralizing activity [6] of the same molecule?
A: Its neutralizing activity is “strong neutralizing activity”.

B3: 42F9: IgG1 κ monoclonal antibody to gp120 CD4-binding site; VH SEQ ID NO: 7, VL SEQ ID NO: 8; FERM BP-11022 (antibody, listed as Homo sapiens, V domains shown)
VH: EVQLVESGGGVVRPGGSLRLSCAASGFAFGEYGMSWVRQAPGKGLEWVSGINWNGGSTGYADSVQGRFTTSRDNAKNSLYLQMNSLRAEDTALYYCARDENYDILTGNYYYGMDVWGQGTTVTVSS
VL: DIQLTQSPSSLSASVGDRVTITCRASQSISNYLNWYQQKPGKAPKLLIYAASSLQSGVPSRFSGSGSGTDFTLTISSLQPEDFATFYCQQSHSIPYTFGQGTKLEIKR
Q: Which results are given for B3?
A: neutralizing activity [9]: clear neutralizing activity; binding activity to the infected cell surface ([1]; FIG. 2): had a binding activity; Traget [10]: CD4bs; neutralizing activity [11]: exhibited a neutralizing activity; influence of sCD4 on reactivity with gp120 [12]: suppressed in the presence of sCD4; neutralizing activity [13]: clear neutralizing activity; neutralizing activity [6]: strong neutralizing activity; neutralizing activity [14]: exhibited a neutralizing activity
